From US20240207432A1 (BIOSION, published 2024)

T1: human TROP2-his protein (human, UniProt P09758 27-274)
T1 construct: Biotin-labelled in the ELISAs, unlabelled analyte in Biacore; also called biotin-labeled human TROP2-his protein; biotin human Trop2-his
T1 sequence: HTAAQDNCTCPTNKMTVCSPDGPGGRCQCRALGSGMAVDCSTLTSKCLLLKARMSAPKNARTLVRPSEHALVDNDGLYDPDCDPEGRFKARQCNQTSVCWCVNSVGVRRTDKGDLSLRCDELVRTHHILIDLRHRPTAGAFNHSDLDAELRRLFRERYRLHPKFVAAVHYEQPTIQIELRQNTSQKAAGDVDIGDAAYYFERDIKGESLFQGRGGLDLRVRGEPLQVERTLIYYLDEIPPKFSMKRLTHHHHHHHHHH


Molecular target: T1, human TROP2-his protein
Assay: SPR Biacore T200, supernatant antibody captured on anti-human IgG CM5 chip, 40 nM human TROP2-his
Procedure: The goat anti-human IgG (GE healthcare, Cat #BR100839, Human Antibody Capture Kit) was covalently linked to a CM5 chip instead of goat anti-mouse IgG. […] The human TROP2-his protein at the concentration of 40 nM was used instead of serially diluted human TROP2-his protein.

Row | Kd [nM] | koff [s⁻¹] | kon [M⁻¹ s⁻¹] | Binder
1 | 0.215 | 0.000188 | 874000 | huA1E4F7D4-V2 (antibody, human IgG1, kappa, V domains shown, Positions of the X residues are printed in CLM-00002, CLM-00003 and CLM-00005; Tested as cell supernatant) VH: QVQLVQSGAEVKKPGASVKVSCKASGYSFTTHWIHWVRQAPGQGLEWIGTIFPSNAYAVYNQKFRDRATMTADRSISTAYIELSRLRSDDTAVYYCARASYFDYWGQGTTVTVSS VL: EIVLTQSPATLSLSPGERATLSCRASQNIGTSIHWFQQKPGGSPRLLIKYASESISGIPSRFSGSGSGTDFTLTISSLEPEDFAVYYCQHSHSWPFTFGQGTKLEIKR
2 | 0.211 | 0.000192 | 909000 | huA1E4F7D4-V12 (antibody, human IgG1, kappa, V domains shown, Positions of the X residues are given in the claims; Tested as cell supernatant) VH: QVQLVQSGAEVKKPGASVKVSCKASGYSFTTHWIHWVRQAPGQGLEWIGTIFPSNAYAVYNQKFRDRATMTADRSISTAYIELSRLRSDDTAVYYCARASYFDYWGQGTTVTVSS VL: EIVLTQSPATLSLSPGERATLSCRASQNIGTSIHWFQQKPGGAPRLLIKYASESISGIPSRFSGSGSGTDFTLTISSLEPEDFAVYYCQHSHSWPFTFGQGTKLEIKR
3 | 0.163 | 0.000175 | 1.08e+06 | huA1E4F7D4-V11 (antibody, human IgG1, kappa, V domains shown, Positions of the X residues are given in the claims; Tested as cell supernatant) VH: QVQLVQSGAEVKKPGASVKVSCKASGYSFTTHWIHWVRQAPGQGLEWIGTIFPSNAYAVYNQKFRDRATMTADTSISTAYIELSRLRSDDTAVYYCARASYFDYWGQGTTVTVSS VL: EIVLTQSPATLSLSPGERATLSCRASQNIGTSIHWFQQKPGQSPRLLIKYASESISGIPSRFSGSGSGTDFTLTISSLEPEDFAVYYCQHSHSWPFTFGQGTKLEIKR
4 | 0.166 | 0.000179 | 1.08e+06 | huA1E4F7D4-V6 (antibody, human IgG1, kappa, V domains shown, Positions of the X residues are given in the claims; Tested as cell supernatant) VH: QVQLVQSGAEVKKPGASVKVSCKASGYSFTTHWIHWVRQAPGQGLEWIGTIFPSNAYAVYNQKFRDRATMTADTSISTAYIELSRLRSDDTAVYYCARASYFDYWGQGTTVTVSS VL: EIVLTQSPATLSLSPGERATLSCRASQNIGTSIHWFQQKPGGSPRLLIKYASESISGIPSRFSGSGSGTDFTLTISSLEPEDFAVYYCQHSHSWPFTFGQGTKLEIKR
5 | 0.215 | 0.00019 | 883000 | huA1E4F7D4-V4 (antibody, human IgG1, kappa, V domains shown, Positions of the X residues are given in the claims; Tested as cell supernatant) VH: QVQLVQSGAEVKKPGASVKVSCKASGYSFTTHWIHWVRQAPGQGLEWIGTIFPSNAYAVYNQKFRDRVTMTADRSISTAYIELSRLRSDDTAVYYCARASYFDYWGQGTTVTVSS VL: EIVLTQSPATLSLSPGERATLSCRASQNIGTSIHWFQQKPGGSPRLLIKYASESISGIPSRFSGSGSGTDFTLTISSLEPEDFAVYYCQHSHSWPFTFGQGTKLEIKR
6 | 0.235 | 0.000195 | 832000 | huA1E4F7D4-V8 (antibody, human IgG1, kappa, V domains shown, Positions of the X residues are given in the claims; Tested as cell supernatant) VH: QVQLVQSGAEVKKPGASVKVSCKASGYTFTTHWIHWVRQAPGQGLEWIGTIFPSNAYAVYNQKFRDRATMTADRSISTAYIELSRLRSDDTAVYYCARASYFDYWGQGTTVTVSS VL: EIVLTQSPATLSLSPGERATLSCRASQNIGTSIHWFQQKPGQSPRLLIKYASESISGIPSRFSGSGSGTDFTLTISSLEPEDFAVYYCQHSHSWPFTFGQGTKLEIKR
7 | 0.353 | 0.000204 | 577000 | huA1E4F7D4-V5 (antibody, human IgG1, kappa, V domains shown, Positions of the X residues are given in the claims; Tested as cell supernatant) VH: QVQLVQSGAEVKKPGASVKVSCKASGYSFTTHWIHWVRQAPGQGLEWIGTIFPSNAYAVYNQKFRDRATMTRDRSISTAYIELSRLRSDDTAVYYCARASYFDYWGQGTTVTVSS VL: EIVLTQSPATLSLSPGERATLSCRASQNIGTSIHWFQQKPGGSPRLLIKYASESISGIPSRFSGSGSGTDFTLTISSLEPEDFAVYYCQHSHSWPFTFGQGTKLEIKR
8 | 0.232 | 0.000193 | 834000 | huA1E4F7D4-V14 (antibody, human IgG1, kappa, V domains shown, Positions of the X residues are given in the claims; Tested as cell supernatant) VH: QVQLVQSGAEVKKPGASVKVSCKASGYSFTTHWIHWVRQAPGQGLEWIGTIFPSNAYAVYNQKFRDRVTMTADRSISTAYIELSRLRSDDTAVYYCARASYFDYWGQGTTVTVSS VL: EIVLTQSPATLSLSPGERATLSCRASQNIGTSIHWFQQKPGGAPRLLIKYASESISGIPSRFSGSGSGTDFTLTISSLEPEDFAVYYCQHSHSWPFTFGQGTKLEIKR
9 | 0.223 | 0.000193 | 865000 | huA1E4F7D4-V9 (antibody, human IgG1, kappa, V domains shown, Positions of the X residues are given in the claims; Tested as cell supernatant) VH: QVQLVQSGAEVKKPGASVKVSCKASGYSFTTHWIHWVRQAPGQGLEWIGTIFPSNAYAVYNQKFRDRVTMTADRSISTAYIELSRLRSDDTAVYYCARASYFDYWGQGTTVTVSS VL: EIVLTQSPATLSLSPGERATLSCRASQNIGTSIHWFQQKPGQSPRLLIKYASESISGIPSRFSGSGSGTDFTLTISSLEPEDFAVYYCQHSHSWPFTFGQGTKLEIKR
10 | 0.314 | 0.000206 | 656000 | huA1E4F7D4-V10 (antibody, human IgG1, kappa, V domains shown, Positions of the X residues are given in the claims; Tested as cell supernatant) VH: QVQLVQSGAEVKKPGASVKVSCKASGYSFTTHWIHWVRQAPGQGLEWIGTIFPSNAYAVYNQKFRDRATMTRDRSISTAYIELSRLRSDDTAVYYCARASYFDYWGQGTTVTVSS VL: EIVLTQSPATLSLSPGERATLSCRASQNIGTSIHWFQQKPGQSPRLLIKYASESISGIPSRFSGSGSGTDFTLTISSLEPEDFAVYYCQHSHSWPFTFGQGTKLEIKR
11 | 0.238 | 0.000197 | 830000 | huA1E4F7D4-V1 (antibody, human IgG1, kappa, V domains shown, Positions of the X residues are printed in CLM-00003 and CLM-00005; Tested as cell supernatant) VH: QVQLVQSGAEVKKPGASVKVSCKASGYSFTTHWIHWMKQRPGQGLEWIGTIFPSNAYAVYNQKFRDRAIMTADRSISTAYIELTRLRSDDTAVYYCARASYFDYWGQGTTVTVSS VL: DILLTQSPATLSLSPGERATLSCRASQNIGTSIHWFQQKPGGSPRLLIKYASESISGIPSRFSGSGSGTDFTLTISSVEPEDFAVYYCQHSHSWPFTFGQGTKLEIKR
12 | 0.221 | 0.000199 | 898000 | huA1E4F7D4-V13 (antibody, human IgG1, kappa, V domains shown, Positions of the X residues are given in the claims; Tested as cell supernatant) VH: QVQLVQSGAEVKKPGASVKVSCKASGYTFTTHWIHWVRQAPGQGLEWIGTIFPSNAYAVYNQKFRDRATMTADRSISTAYIELSRLRSDDTAVYYCARASYFDYWGQGTTVTVSS VL: EIVLTQSPATLSLSPGERATLSCRASQNIGTSIHWFQQKPGGAPRLLIKYASESISGIPSRFSGSGSGTDFTLTISSLEPEDFAVYYCQHSHSWPFTFGQGTKLEIKR
13 | 0.216 | 0.000192 | 887000 | huA1E4F7D4-V7 (antibody, human IgG1, kappa, V domains shown, Positions of the X residues are given in the claims; Tested as cell supernatant) VH: QVQLVQSGAEVKKPGASVKVSCKASGYSFTTHWIHWVRQAPGQGLEWIGTIFPSNAYAVYNQKFRDRATMTADRSISTAYIELSRLRSDDTAVYYCARASYFDYWGQGTTVTVSS VL: EIVLTQSPATLSLSPGERATLSCRASQNIGTSIHWFQQKPGQSPRLLIKYASESISGIPSRFSGSGSGTDFTLTISSLEPEDFAVYYCQHSHSWPFTFGQGTKLEIKR
14 | 0.238 | 0.000199 | 836000 | huA1E4F7D4-V3 (antibody, human IgG1, kappa, V domains shown, Positions of the X residues are given in the claims; Tested as cell supernatant) VH: QVQLVQSGAEVKKPGASVKVSCKASGYTFTTHWIHWVRQAPGQGLEWIGTIFPSNAYAVYNQKFRDRATMTADRSISTAYIELSRLRSDDTAVYYCARASYFDYWGQGTTVTVSS VL: EIVLTQSPATLSLSPGERATLSCRASQNIGTSIHWFQQKPGGSPRLLIKYASESISGIPSRFSGSGSGTDFTLTISSLEPEDFAVYYCQHSHSWPFTFGQGTKLEIKR
